The results in this text go back to the nanobody polyreactivity screen of Harvey et al. (2022).

The data set is described as follows: yeast display, Sf9 membrane polyspecificity reagent, FACS + sequencing; frameworks hold sequencing errors. Put shortly:
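Nanobodies came from a synthetic yeast display library in Saccharomyces cerevisiae BJ5465, induced with galactose for 36–48 hours and stained for 1 hour at 4 °C with 10% biotinylated, detergent-solubilized Sf9 membrane reagent. Cells were enriched on streptavidin microbeads and then FACS-sorted, with low and high (top ~1%) gates set on anti-HA fluorescence for expression and streptavidin fluorescence for reagent binding. Each polyreactivity label reflects the gate a clone came from. Genes were amplified by colony PCR, sequenced by MiSeq 2 × 250 and filtered by CDR length.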
Turning to “QVQLVESGGGLIQAGGSLRLSCATSGSIFDDYAMGWYRQAPGKERELVAAISSSGTSTYYADSVKGRFTISRDNAKNTVYLQMKSLKPEDTAVYYCAARSAILKSGYLMDYWGQGTQVTVSS”, the “polyreactivity (PSR sort gate)” value is given as “low polyreactivity”.
As to “QVQLVESGGGLLKAGGSLRLSCAASGIIFDSYAMGWYIQAPGKERELVAAITSDSGRTYYADSVKGRFTISRDYAKNTFYLQMNSLKPEDTAVYYCAKRWEGPYDYWGQGSQVTVSS”, the “polyreactivity (PSR sort gate)” value is “low polyreactivity”.
For the sequence “QVQLVESGGGLLKAGGSLRLSCAASGSTFSVYAMGWYRQAPGKEREFVARITWNGGRTYYADSVKGRFTISRDNAKNTVYLQMNSLKPEDTAVYYCAARGPTVTGTGGDYWGQGTQVTVSS”, the “polyreactivity (PSR sort gate)” value is reported as “high polyreactivity”.
On to “QVQLVESGGGLLKEGGSLRLICAASGRIFVGYDMGWYRQEPGKERELVAAISSDGGSTYYSDSVKGRFTISRDNAKNTVYLQMNSVKPEDTAFYYCAADDFSTVEYDYWGQGTQVNVSS”, for which the “polyreactivity (PSR sort gate)” value is reported as “low polyreactivity”.
With “QVQLVESGGGLLQAGASLRLSCAASGRTIYRYAMGRYRQAPGKERELVAAITRRGVNTYYADSVKGRFTISRDNAKNTVYLQMYSLKPVDTAVFYCNAAYSSRYDYCGQGTQVTVSS”, the “polyreactivity (PSR sort gate)” value is “high polyreactivity”.
Take “QVQLVESGGGLLQAGCSLRISCAASGFIFYKYVMGWYRPAPGKERELVAAINWSGGSTYYADSVKGRFTISRDNAKNTVYLQMNSLKQEDTAVYYCNAARRSKGGLNDYYWGQGTQVTVSS”: the “polyreactivity (PSR sort gate)” value was “high polyreactivity”.
As to “QVQLVESGGGLLQAGGILRLSCAASGRTFGLYAMRWYRQAPGKERELVAAIRGSAGSTYYADSVKGRFTISRDNAKNTVYLQMNSLKPEDTAVYYCATVGYPSLWYGYGYWGQGTQVTVSS”, the “polyreactivity (PSR sort gate)” value was “low polyreactivity”.
With “QVQLVESGGGLLQAGGRLRLSCAASGGIFQGYAMGWYRQAPGKERELVAAISRSGGRTYYADSVKGRFTISRDNAKNTVYLQMNSLKPEDTAVYYCAKSQSAKGGYDYWGQATQVTVSS”, the “polyreactivity (PSR sort gate)” value is recorded as “high polyreactivity”.
The entry for “QVQLVESGGGLLQAGGSLLLSCAASGSIFDTNAMGWYRQAPGTERELVAAISWSDTSTYADSVKGRFTISRDNAKNTVYLQMNSLKPEDTAVYYCATDTRSQAYYYWGQGTQVNVSS” is “low polyreactivity”.
In the case of “QVQLVESGGGLLQAGGSLRLICAASGFIVRRYAMGWYRQAPGKARELVAAITSGGSTYYADSVKGRFTISRDNAQYTVYLQFNSMKPVDTADYYCNAYFTGKWYDYWGQGTQVTVSS” it was “high polyreactivity”; in that of “QVQLVESGGGLLQAGGSLRLSCAASGFTFSYYAKGWYRQAPGKERELVAVISDRGGITYYADSVKGRFTISRDNAKNTVYLQMNSVKPEDTAVYYCAADLDSWYGYYYIVEYWGQGTQVTVSS”, “low polyreactivity”; in that of “QVQLVESGGGLLQAGGSLRLSCAASGFTIKYYAMGWYRPAPGKERELVAAIRGSGAGTYYADSVKGRFTISRDNAKNTVYLQMNSLKPEDTAVYYCNKRWTYQWDDYWGQGTQVTVSS”, “high polyreactivity”.
“QVQLVESGGGLLQAGGSLRLSCAASGIIFFKYAMGWYRQAPGKERELVAAINRSGGSTYYADSVKGRFTISRDNAKNSVSLQMNSLKPEDTAVYYCNARLTLRSYDYWGQGTQVTVSS”: the “polyreactivity (PSR sort gate)” value was “low polyreactivity”.
For “QVQLVESGGGLLQAGGSLRLSCAASGIIFRWYAMGWYSQAPGKERELVATITRSGGSTYYADSVKGRFTISRDNAKKTVYLLMKSLKPEDTAVFYCATGRYPSGRPTRNYDSVYWGHGTQVTVSS”, the “polyreactivity (PSR sort gate)” value is on record as “high polyreactivity”.
Take “QVQLVESGGGLLQAGGSLRLSCAASGITFLGYAMGWYRQATWKERELVAAISISGDTYYADSEKGRFTISRDNAKNTVYLQMNSLKPEDTAVYYCAAVQSYAGFEYGYWGQGTQVTVSS”: the “polyreactivity (PSR sort gate)” value is recorded as “high polyreactivity”.
As to “QVQLVESGGGLLQAGGSLRLSCAASGITFRRNTMGWYREAPGKVRELVATISWRGGNTFYADSVKGRCTISRDNAKNTVYLQMNSRKPEDTAVYYCAAYSPYITRPGYAPYGYWGQATQVTVSS”, the “polyreactivity (PSR sort gate)” value is “high polyreactivity”.
Regarding “QVQLVESGGGLLQAGGSLRLSCAASGITLSYYVMGWYRQAPGKERELVAAINQSGSRTYYADSVKGRFTISRDNPKNSVYLQMNSLKPEDTAVYYCAGVFSYQPTSGYGYWGQGTQVTVSS”, the “polyreactivity (PSR sort gate)” value is reported as “high polyreactivity”.
The entry for “QVQLVESGGGLLQAGGSLRLSCAASGLIFGYYAMGWYRQAPGKERELVGAITSSGTSTYYADSVKGRFTISRDNAKNTVYLQMNSLKPEDTAVYYCAAQYIGKKRFNYWGQGTQVTVSS” is “high polyreactivity”; for “QVQLVESGGGLLQAGGSLRLSCAASGNIFTYYAMGWYRQAPGKERDLVAAIRWRSGSTYYADSVKGRFTISRDNAKNTVYLQMNSLKPEDTAVYYCADDGTPYEYDYWGQGTQVTVSS” it is “low polyreactivity”; for “QVQLVESGGGLLQAGGSLRLSCAASGRIFGSYAMGWYRPAPGKERELVAAINWRGGSTFYADSVKGRFTISRDNAKNTVYLQMNSLKPEDTAVYYCARRGYRQSGDYWGQGSQVTVSS” it is “low polyreactivity”.
As to “QVQLVESGGGLLQAGGSLRLSCAASGRIFRYYAMVWYIQAPVKERELVAGISWTGGTTYYADSVNGRFTISLDNAKNSVYLQMYSLKPEDSAVDYCIVRRSTLYDYWGQGTQVTVSS”, the “polyreactivity (PSR sort gate)” value was “high polyreactivity”.
The entry for “QVQLVESGGGLLQAGGSLRLSCAASGRNFRLYPMGWYRQAPGTERDFLAAITFSGGRTYYADSVKGRFTISRDNAKNTVYLQMKSLKPEDTAVYYCAARGQTGYYSGVGYWGLGTQVTVSS” is “high polyreactivity”.
“QVQLVESGGGLLQAGGSLRLSCAASGRNFRYYAMGWYRQAPRKERELVAAITRGGRTNYADSVKGRFTISRDNAKNTVYLQMNSLKPEDSAVYYCAADYTKYYRRYYYWGQGTQVTVSS”: the “polyreactivity (PSR sort gate)” value was “high polyreactivity”.
With “QVQLVESGGGLLQAGGSLRLSCAASGRTFGYYAMGWYRQAPGKERELVAAISKSGGRTYYADSVKGRFTISRDNAKNTVYLQMNSLKPEDTAVYYCAADGGAIVPYYENYYWGQGTQVTVSS”, the “polyreactivity (PSR sort gate)” value is listed as “high polyreactivity”.
Consider “QVQLVESGGGLLQAGGSLRLSCAASGRTFYRYAMGWYRQAPGKERELVAAITWSGGSTYYADSVKGRFTTSRDNAKNTVYLQMNSLKPEDTAVYYCARRLYPYRPTAYDYWGQGTQVTVSS”, for which the “polyreactivity (PSR sort gate)” value is reported as “low polyreactivity”.
On to “QVQLVESGGGLLQAGGSLRLSCAASGSIFGGNAMGWYRQAPGKEREFVAAITVSDGSTYYADSVKGRFTISRDNAKNTVYLQMNSLKPEDTAVYYCAAGGFYYPHYDYWGQGSQVTVSS”, for which the “polyreactivity (PSR sort gate)” value is recorded as “low polyreactivity”.
In the case of “QVQLVESGGGLLQAGGSLRLSCAASGSIFGYNAMGWYRQAPGKERELVAAISYSGGSTYYADSVKGRFPISRDNAKNTVYLQMNSLKPEDTAVYYCAKAGRYANLPYGYWGQGTQVTVSS”, the “polyreactivity (PSR sort gate)” value was “high polyreactivity”.
For the sequence “QVQLVESGGGLLQAGGSLRLSCAASGSIFSYYVMGWYRQAPGKERELVAAISSSGGSTYYADSVKGRFTISRDNEKNTVYLQMNSLKPEDTAVYYCAAQHYVRSSIPGFIYYYWGQGTQVTVSS”, the “polyreactivity (PSR sort gate)” value is reported as “high polyreactivity”.
As to “QVQLVESGGGLLQAGGSLRLSCAASGSIFTHNAMGWYRQAPGKERELVAAISSGGSTNYADSVKGRFTISRDNAKNTVYLHMNSLKPEDTAVYYCAATDQKLSLDYSSYEYWGQGTQVTVSS”, the “polyreactivity (PSR sort gate)” value is “low polyreactivity”.
Consider “QVQLVESGGGLLQAGGSLRLSCAASGSIFTSNAMGWYRQAPGKERELVAAITRGGNTNYADSVKGRFTISRDNAKNTVYLQMNSLKPEDTAVYYCATEGFVYSWLWEFEYWGQGTQVTVSS”, for which the “polyreactivity (PSR sort gate)” value is recorded as “low polyreactivity”.
